Patent US20220025008A1 (FAPON BIOTECH, published 2022)

T1: Recombinant NT antigen (N-terminal pro-brain natriuretic peptide, NT-proBNP) (human, UniProt P16860 27-102)
T1 construct: domain: N-terminal pro-brain natriuretic peptide (NT-proBNP); also called recombinant NT protein; N-terminal pro-B-type natriuretic peptide
T1 sequence (looked up): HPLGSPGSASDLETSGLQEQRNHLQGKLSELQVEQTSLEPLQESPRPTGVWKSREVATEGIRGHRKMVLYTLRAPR

B1: Mutation 1 (antibody, V domains shown)
VH: QVRLQESGPSQVKPAQTLSLTCAISGFSITTYYIDWVRHTPGKPPEWLAQMTKDGNAVHQPTIRSRLSITRDTSKSQVFLKLTGVTTEDTAVYYCVRGIIDWGPGLLVTVSS
VL: QAVLTQPSSVSRSLGQTVSITCSGSSDQVGFGDYVNWFQLIPGSAPKTLIFGATSRIRGVPDRFSGSRSGNTATLTINSLQAEDEADYYCGSPNSRGGYVFGSGTRLTVLS
notes: also called mutant 1 antibody
B2: WT 1-5 (antibody)
heavy: QVRLQESGPSQVKPAQTLSLTCAISGPSLTTYYLDWVRHTPGKPPEWLAQMTKDANAVHNPTVRSRLSITRDTSKSQVFLKLTGVTTEDTAVYYCVKGLIDFGPGLLVTVSSASTTPPKVYPLTSCCGDTSSSIVTLGCLVSSYMPEPVTVTWNSGALTSGVHTFPAILQSSGLYSLSSVVTVPASTSGAQTFICNVAHPASSTKVDKRVEPGCPDPCKHCRCPPPELPGGPSVFIFPPKPKDTLTISGTPEVTCVVVDVGQDDPEVQFSWFVDNVEVRTARTKPREEQFNSTFRVVSALPIQHQDWTGGKEFKCKVHNEGLPAPIVRTISRTKGQAREPQVYVLAPPQEELSKSTLSVTCLVTGFYPDYIAVEWQKNGQPESEDKYGTTTSQLDADGSYFLYSRLRVDKNSWQEGDTYACVVMHEALHNHYTQKSISKPPGK
light: QAVLTQPSSVSRSLGQTVSITCSGSSDQVGPGDYLNWFQLIPGSAPKTLIFAASSRIRGVPDRFSGSRSGNTATLTINSLQAEDEADYYCGSANSRNYVWGSGTRLTVLSQPKSAPSVTLFPPSKEELDTNKATVVCLISDFYPGSVNVVWKADGSTINQNVKTTQASKQSNSKYAASSYLTLTGSEWKSKSSYTCEVTHEGSTVTKTVKPSECS
B3: Mutation 1-1 (antibody)
heavy: QVRLQESGPSQVKPAQTLSLTCAISGFSITTYYLDWVRHTPGKPPEWLAQMTKDGNAVHNPTIRSRLSITRDTSKSQVFLKLTGVTTEDTAVYYCVRGIIDFGPGLLVTVSSASTTPPKVYPLTSCCGDTSSSIVTLGCLVSSYMPEPVTVTWNSGALTSGVHTFPAILQSSGLYSLSSVVTVPASTSGAQTFICNVAHPASSTKVDKRVEPGCPDPCKHCRCPPPELPGGPSVFIFPPKPKDTLTISGTPEVTCVVVDVGQDDPEVQFSWFVDNVEVRTARTKPREEQFNSTFRVVSALPIQHQDWTGGKEFKCKVHNEGLPAPIVRTISRTKGQAREPQVYVLAPPQEELSKSTLSVTCLVTGFYPDYIAVEWQKNGQPESEDKYGTTTSQLDADGSYFLYSRLRVDKNSWQEGDTYACVVMHEALHNHYTQKSISKPPGK
light: QAVLTQPSSVSRSLGQTVSITCSGSSDQVGFGDYLNWFQLIPGSAPKTLIFGATSRLRGVPDRFSGSRSGNTATLTINSLQAEDEADYYCGSPNSRNYVFGSGTRLTVLSQPKSAPSVTLFPPSKEELDTNKATVVCLISDFYPGSVNVVWKADGSTINQNVKTTQASKQSNSKYAASSYLTLTGSEWKSKSSYTCEVTHEGSTVTKTVKPSECS
B4: Mutation 1-3 (antibody)
heavy: QVRLQESGPSQVKPAQTLSLTCAISGFSLTTYYIDWVRHTPGKPPEWLAQMTKDGNAVHNPTLRSRLSITRDTSKSQVFLKLTGVTTEDTAVYYCVRGLIDFGPGLLVTVSSASTTPPKVYPLTSCCGDTSSSIVTLGCLVSSYMPEPVTVTWNSGALTSGVHTFPAILQSSGLYSLSSVVTVPASTSGAQTFICNVAHPASSTKVDKRVEPGCPDPCKHCRCPPPELPGGPSVFIFPPKPKDTLTISGTPEVTCVVVDVGQDDPEVQFSWFVDNVEVRTARTKPREEQFNSTFRVVSALPIQHQDWTGGKEFKCKVHNEGLPAPIVRTISRTKGQAREPQVYVLAPPQEELSKSTLSVTCLVTGFYPDYIAVEWQKNGQPESEDKYGTTTSQLDADGSYFLYSRLRVDKNSWQEGDTYACVVMHEALHNHYTQKSISKPPGK
light: QAVLTQPSSVSRSLGQTVSITCSGSSDNVGFGDYVNWFQLIPGSAPKTLIFGAYSRIRGVPDRFSGSRSGNTATLTINSLQAEDEADYYCGSANSRNYVFGSGTRLTVLSQPKSAPSVTLFPPSKEELDTNKATVVCLISDFYPGSVNVVWKADGSTINQNVKTTQASKQSNSKYAASSYLTLTGSEWKSKSSYTCEVTHEGSTVTKTVKPSECS
B5: Mutation 1-7 (antibody)
heavy: QVRLQESGPSQVKPAQTLSLTCAISGFSVTTYYLDWVRHTPGKPPEWLAQMTKDGNAVHQPTVRSRLSITRDTSKSQVFLKLTGVTTEDTAVYYCVRGIIDFGPGLLVTVSSASTTPPKVYPLTSCCGDTSSSIVTLGCLVSSYMPEPVTVTWNSGALTSGVHTFPAILQSSGLYSLSSVVTVPASTSGAQTFICNVAHPASSTKVDKRVEPGCPDPCKHCRCPPPELPGGPSVFIFPPKPKDTLTISGTPEVTCVVVDVGQDDPEVQFSWFVDNVEVRTARTKPREEQFNSTFRVVSALPIQHQDWTGGKEFKCKVHNEGLPAPIVRTISRTKGQAREPQVYVLAPPQEELSKSTLSVTCLVTGFYPDYIAVEWQKNGQPESEDKYGTTTSQLDADGSYFLYSRLRVDKNSWQEGDTYACVVMHEALHNHYTQKSISKPPGK
light: QAVLTQPSSVSRSLGQTVSITCSGSSDNVGFGDYLNWFQLIPGSAPKTLIFGASSRLRGVPDRFSGSRSGNTATLTINSLQAEDEADYYCGSGNSRNYVFGSGTRLTVLSQPKSAPSVTLFPPSKEELDTNKATVVCLISDFYPGSVNVVWKADGSTINQNVKTTQASKQSNSKYAASSYLTLTGSEWKSKSSYTCEVTHEGSTVTKTVKPSECS
B6: Mutation 1-10 (antibody, V domains shown)
VH: QVRLQESGPSQVKPAQTLSLTCAISGFSITTYYLDWVRHTPGKPPEWLAQMTKDGNAVHNPTIRSRLSITRDTSKSQVFLKLTGVTTEDTAVYYCVRGVIDWGPGLLVTVSS
VL: QAVLTQPSSVSRSLGQTVSITCSGSSDQVGFGDYLNWFQLIPGSAPKTLIFGASSRLRGVPDRFSGSRSGNTATLTINSLQAEDEADYYCGSANSRNYVFGSGTRLTVLS
B7: Mutation 1-13 (antibody)
heavy: QVRLQESGPSQVKPAQTLSLTCAISGFSLTTYYLDWVRHTPGKPPEWLAQMTKDGNAVHNPTIRSRLSITRDTSKSQVFLKLTGVTTEDTAVYYCVRGIIDFGPGLLVTVSSASTTPPKVYPLTSCCGDTSSSIVTLGCLVSSYMPEPVTVTWNSGALTSGVHTFPAILQSSGLYSLSSVVTVPASTSGAQTFICNVAHPASSTKVDKRVEPGCPDPCKHCRCPPPELPGGPSVFIFPPKPKDTLTISGTPEVTCVVVDVGQDDPEVQFSWFVDNVEVRTARTKPREEQFNSTFRVVSALPIQHQDWTGGKEFKCKVHNEGLPAPIVRTISRTKGQAREPQVYVLAPPQEELSKSTLSVTCLVTGFYPDYIAVEWQKNGQPESEDKYGTTTSQLDADGSYFLYSRLRVDKNSWQEGDTYACVVMHEALHNHYTQKSISKPPGK
light: QAVLTQPSSVSRSLGQTVSITCSGSSDQVGFGDYLNWFQLIPGSAPKTLIFGAYSRLRGVPDRFSGSRSGNTATLTINSLQAEDEADYYCGSPNSRNYVFGSGTRLTVLSQPKSAPSVTLFPPSKEELDTNKATVVCLISDFYPGSVNVVWKADGSTINQNVKTTQASKQSNSKYAASSYLTLTGSEWKSKSSYTCEVTHEGSTVTKTVKPSECS
B8: Mutation 1-15 (antibody)
heavy: QVRLQESGPSQVKPAQTLSLTCAISGFSVTTYYIDWVRHTPGKPPEWLAQMTKDGNAVHNPTLRSRLSITRDTSKSQVFLKLTGVTTEDTAVYYCVRGLIDFGPGLLVTVSSASTTPPKVYPLTSCCGDTSSSIVTLGCLVSSYMPEPVTVTWNSGALTSGVHTFPAILQSSGLYSLSSVVTVPASTSGAQTFICNVAHPASSTKVDKRVEPGCPDPCKHCRCPPPELPGGPSVFIFPPKPKDTLTISGTPEVTCVVVDVGQDDPEVQFSWFVDNVEVRTARTKPREEQFNSTFRVVSALPIQHQDWTGGKEFKCKVHNEGLPAPIVRTISRTKGQAREPQVYVLAPPQEELSKSTLSVTCLVTGFYPDYIAVEWQKNGQPESEDKYGTTTSQLDADGSYFLYSRLRVDKNSWQEGDTYACVVMHEALHNHYTQKSISKPPGK
light: QAVLTQPSSVSRSLGQTVSITCSGSSDNVGFGDYVNWFQLIPGSAPKTLIFGATSRIRGVPDRFSGSRSGNTATLTINSLQAEDEADYYCGSANSRNYVFGSGTRLTVLSQPKSAPSVTLFPPSKEELDTNKATVVCLISDFYPGSVNVVWKADGSTINQNVKTTQASKQSNSKYAASSYLTLTGSEWKSKSSYTCEVTHEGSTVTKTVKPSECS
B9: Mutation 1-22 (antibody, V domains shown)
VH: QVRLQESGPSQVKPAQTLSLTCAISGFSLTTYYLDWVRHTPGKPPEWLAQMTKDGNAVHNPTIRSRLSITRDTSKSQVFLKLTGVTTEDTAVYYCVRGVIDWGPGLLVTVSS
VL: QAVLTQPSSVSRSLGQTVSITCSGSSDQVGFGDYLNWFQLIPGSAPKTLIFGAYSRLRGVPDRFSGSRSGNTATLTINSLQAEDEADYYCGSANSRNYVFGSGTRLTVLS
B10: Mutation 1-25 (antibody)
heavy: QVRLQESGPSQVKPAQTLSLTCAISGFSVTTYYLDWVRHTPGKPPEWLAQMTKDGNAVHNPTIRSRLSITRDTSKSQVFLKLTGVTTEDTAVYYCVRGIIDFGPGLLVTVSSASTTPPKVYPLTSCCGDTSSSIVTLGCLVSSYMPEPVTVTWNSGALTSGVHTFPAILQSSGLYSLSSVVTVPASTSGAQTFICNVAHPASSTKVDKRVEPGCPDPCKHCRCPPPELPGGPSVFIFPPKPKDTLTISGTPEVTCVVVDVGQDDPEVQFSWFVDNVEVRTARTKPREEQFNSTFRVVSALPIQHQDWTGGKEFKCKVHNEGLPAPIVRTISRTKGQAREPQVYVLAPPQEELSKSTLSVTCLVTGFYPDYIAVEWQKNGQPESEDKYGTTTSQLDADGSYFLYSRLRVDKNSWQEGDTYACVVMHEALHNHYTQKSISKPPGK
light: QAVLTQPSSVSRSLGQTVSITCSGSSDQVGFGDYLNWFQLIPGSAPKTLIFGASSRLRGVPDRFSGSRSGNTATLTINSLQAEDEADYYCGSPNSRNYVFGSGTRLTVLSQPKSAPSVTLFPPSKEELDTNKATVVCLISDFYPGSVNVVWKADGSTINQNVKTTQASKQSNSKYAASSYLTLTGSEWKSKSSYTCEVTHEGSTVTKTVKPSECS

target: T1, Recombinant NT antigen (N-terminal …); assay: indirect ELISA, KD calculated from half-max OD at 4 coating concentrations
Method: Recombinant NT antigen was diluted with coating solution to 1 μg/ml a microplate overnight at 4° C.; which was washed twice with washing solution and patted dry on the next day; with addition of blocking solution (20% BSA+80% PBS) at 120 μL per well at 37° C. for 1 h and patted dry; added the diluted NT monoclonal antibody, 100 μL/well at 37° C. for 30 min (partial supernatant for 1 h); washed 5 times with washing solution and patted dry; added rabbit anti-goat IgG-HRP […] per well at 37° C. for 30 min; washed 5 times with washing solution and patted dry; added color developing solution A (50 μL/well), added color developing solution B (50 μL/well) for 10 min; added stop solution, 50 μL/well; followed by reading the OD value at 450 nm (reference 630 nm) on the microplate reader.
Data from the enzyme immunoassay indirect method were analyzed in the same way as the activity identification, with four gradients of 3 μg/ml, 1.5 μg/ml, 0.75 μg/ml and 0.375 μg/ml for coating; the antibody was diluted from 1000 ng/ml by 2 times to 0.977 ng/ml for loading sample. OD values corresponding to different antibody concentrations at different coating concentrations were obtained. Under the same coating concentration, data were plotted logarithmically with the antibody concentration as the abscissa and the OD value as the ordinate.

Q: How did the Kd turn out when B1 was run?
A: Its Kd is 1.73 nM.

Q: For B2, which Kd is on record?
A: The Kd was 22.6 nM.

Q: B3 was tested. Which Kd did it give?
A: The Kd was 2.51 nM.

Q: With B4 as the binder, how does the Kd read?
A: Its Kd is 1.52 nM.

Q: B5 was tested. Which Kd did it give?
A: The Kd was 1.53 nM.

Q: B6 was tested. Which Kd did it give?
A: Its Kd is 3.2 nM.

Q: How did the Kd turn out when B7 was run?
A: Its Kd is 2.09 nM.

Q: For B8, which Kd is on record?
A: The Kd was 1.76 nM.

Q: B9 was tested. Which Kd did it give?
A: The Kd was 2.07 nM.

Q: B10 was tested. Which Kd did it give?
A: The Kd was 2.16 nM.
